According to article PMC6315623:

B1: unnamed (parent)
chain 1: PHLSRQPEQPEQRALGPVSMPNLVPEVIDLTCHEAGFPPSDDEDEEG
chain 2: MPQPIEKVSVSTQTKKLSASSPRMLHRSTQTTNDGVCQSMCHDKYTKIFNDFKDRMKSDHKRETERVVREALEKLRSEMEEEKRQAVNKAVANMQGEMDRKCKQVKEKCKEEFVEEIKKLATQHKQLISQTKKKQWCYNCEEEAMYHCCWNTSYCSIKCQQEHWHAEHKRTCRRKR

Variants of: B1
Experiment: yeast two-hybrid (β-galactosidase activity)
Conditions: with partner chain of the complex shown; n = 3; parent: 100; read off a plot

In order of rising percent of parent:
1. chain 1 S19A  89%
2. chain 1 N22A  100%
3. chain 1 V24A  100%
4. chain 1 V27A  130%
5. chain 1 I28A  140%
6. chain 1 E26A  150%
7. chain 1 M20A  160%
8. chain 1 P25A  180%
